Data as given in patent publication US20240010684A1, “MASP INHIBITORY COMPOUNDS AND USES THEREOF” (BAYER AKTIENGESELLSCHAFT, priority 2020, published 2024).

Legend:
[1] = biological target: T1, recombinant human MASP1 (amino acids 297-699, C-terminal His Tag) (human) (UniProt P48740); test: cell-based or functional assay
T1 sequence: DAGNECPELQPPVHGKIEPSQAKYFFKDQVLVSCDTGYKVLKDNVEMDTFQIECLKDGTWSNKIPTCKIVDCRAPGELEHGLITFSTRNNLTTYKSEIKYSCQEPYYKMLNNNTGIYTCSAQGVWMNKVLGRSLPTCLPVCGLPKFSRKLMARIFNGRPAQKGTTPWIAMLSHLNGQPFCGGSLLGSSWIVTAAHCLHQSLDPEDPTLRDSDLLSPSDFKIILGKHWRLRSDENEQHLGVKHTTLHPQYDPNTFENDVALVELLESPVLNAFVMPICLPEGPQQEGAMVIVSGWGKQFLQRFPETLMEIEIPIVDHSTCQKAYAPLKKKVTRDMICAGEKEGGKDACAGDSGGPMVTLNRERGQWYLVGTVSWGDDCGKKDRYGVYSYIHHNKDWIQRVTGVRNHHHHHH

[2] = biological target: recombinant human MASP2 (amino acids 297-686, C-terminal His Tag) (human) (UniProt O00187); test: cell-based or functional assay
Chain of recombinant human MASP2 (amino acids 297-686, C-terminal His Tag) (human) (O00187 other isoform, or with tags, fused parts or gaps limits assumed): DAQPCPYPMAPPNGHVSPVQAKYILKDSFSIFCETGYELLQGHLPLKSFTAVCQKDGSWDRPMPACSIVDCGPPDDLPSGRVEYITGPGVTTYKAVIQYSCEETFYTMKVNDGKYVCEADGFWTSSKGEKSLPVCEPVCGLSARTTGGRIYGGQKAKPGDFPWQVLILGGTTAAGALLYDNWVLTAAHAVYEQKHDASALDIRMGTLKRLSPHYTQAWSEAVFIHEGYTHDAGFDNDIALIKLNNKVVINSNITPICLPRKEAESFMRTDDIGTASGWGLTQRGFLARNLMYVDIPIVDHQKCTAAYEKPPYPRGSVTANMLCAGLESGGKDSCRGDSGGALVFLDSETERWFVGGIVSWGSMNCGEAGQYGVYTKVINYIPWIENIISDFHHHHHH

Example 47: A**GGIC+SRS-((tBu)A)-PPI-((N-Me)C)+-IPd** (peptide)
human MASP1 IC50 [1]: 8.2 nM
human MASP2 IC50 [2]: 66 nM
